# Source: PMC9975939
# Key:
# [1] = target: FIP200-GFP; assay: bead recruitment assay (confocal imaging of FIP200-GFP on beads); settings: glutathione Sepharose beads coated with GST-4xUb, incubated with untagged NDP52 and FIP200-GFP; read off a plot
# [2] = target: His-Flag-NDP52 C18, 153, 163, 321S (human) (UniProt Q13137); assay: native gel or EMSA; blue native PAGE of lysates (30 μg; 20 mM Bis-Tris pH 7.2, 40 mM NaCl, 10% glycerol, 0.5% NP-40) of HeLa PentaKO cells stably expressing NDP52 WT or Mut, immunoblot
# [3] = target: untagged NDP52 C18, 153, 163, 321S mutant (human) (UniProt Q13137); assay: native gel or EMSA; blue native PAGE (4–16% NativePAGE gel, Coomassie G-250) of recombinant NDP52 WT and Mut, immunoblot
substance,measurement,setting,value
"untagged NDP52 wild type mutant C18S; C153S; C163S; C321S [human] / FIP200-GFP [not stated] chain 1 C18S, chain 1 C153S, chain 1 C163S, chain 1 C321S",percent of parent,[1],93%
"His-Flag-NDP52 C18, 153, 163, 321S (from UniProt Q13137 1-446) (natural protein)",stoichiometry N,[2],2
"untagged NDP52 C18, 153, 163, 321S mutant (from UniProt Q13137 1-446) (natural protein)",stoichiometry N,[3],2
